Laboratory results published in patent US20180291110A1 (Hoffmann-La Roche, published 2018).

Biological target: T1, human transferrin receptor (recombinant, for surface plasmon resonance) (human, UniProt P02786 89-760)
T1 construct: also called huTfR; human transferrin receptor-biotinylated
Assay: SPR 25C

T1 sequence (P02786 89-760 limits assumed): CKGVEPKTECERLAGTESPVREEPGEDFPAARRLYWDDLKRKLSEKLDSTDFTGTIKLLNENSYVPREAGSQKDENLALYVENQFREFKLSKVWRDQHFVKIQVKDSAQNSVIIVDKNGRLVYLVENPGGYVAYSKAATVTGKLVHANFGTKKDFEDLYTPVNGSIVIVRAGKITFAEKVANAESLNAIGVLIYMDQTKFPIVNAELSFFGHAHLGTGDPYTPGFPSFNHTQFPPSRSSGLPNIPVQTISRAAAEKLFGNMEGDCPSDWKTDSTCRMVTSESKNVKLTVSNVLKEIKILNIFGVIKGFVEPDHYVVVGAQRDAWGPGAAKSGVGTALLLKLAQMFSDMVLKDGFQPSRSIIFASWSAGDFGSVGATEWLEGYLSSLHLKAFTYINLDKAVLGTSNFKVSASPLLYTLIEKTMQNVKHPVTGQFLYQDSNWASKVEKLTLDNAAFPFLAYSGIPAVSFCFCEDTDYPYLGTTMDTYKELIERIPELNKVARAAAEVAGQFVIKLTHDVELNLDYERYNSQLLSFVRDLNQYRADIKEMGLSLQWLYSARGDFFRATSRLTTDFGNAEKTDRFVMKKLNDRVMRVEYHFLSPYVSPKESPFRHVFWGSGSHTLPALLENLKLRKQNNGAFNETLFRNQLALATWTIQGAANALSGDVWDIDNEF

Row | koff | Binder
1 | 0.00589 s⁻¹ | 2/99 VH13/VL10 (antibody, V domains shown) VH: QVQLQESGPGLVKPSETLSLTCTVSGFSLSSYAMSWIRQPPGKGLEWIGYIWSGGSTDYNPSLKSRVTISVDTSKNQVSLKLSSVTAADTAVYYCARRYGTSYPDYGDANGFDPWGQGTLVTVSS VL: DIQMTQSPSSLSASVGDRVTITCRASQSISSYLSWYQQKPGKAPKLLIYRASTLASGVPSRFSGSRSGTDFTLTISSLQPEDFATYYCQQSYSSSNVDNTFGGGTKVEIK
2 | 0.00399 s⁻¹ | 2/99 VH15/VL10 (antibody, V domains shown) VH: QQLQESGPGLVKPSETLSLTCTVSGFSLSSYAMSWVRQPPGKGLEWIGYIWSGGSTDYNPSLKSRVTISVDTSKNQVSLKLSSVTAADTAVYYCARRYGTSYPDYGDANGFDPWGQGTLVTVSS VL: DIQMTQSPSSLSASVGDRVTITCRASQSISSYLSWYQQKPGKAPKLLIYRASTLASGVPSRFSGSRSGTDFTLTISSLQPEDFATYYCQQSYSSSNVDNTFGGGTKVEIK
3 | 0.00424 s⁻¹ | 2/99 VH16/VL10 (antibody, V domains shown) VH: QQLQESGPGLVKPSETLSLTCTVSGFSLSSYAMSWVRQPPGKGLEWIGYIWSGGSTDYNPSLKSRVTISVDTSKNQVSLKLSSVTAADTAVYYCARRYGTSYPDYGDANGFDPWGPGTLVTVSS VL: DIQMTQSPSSLSASVGDRVTITCRASQSISSYLSWYQQKPGKAPKLLIYRASTLASGVPSRFSGSRSGTDFTLTISSLQPEDFATYYCQQSYSSSNVDNTFGGGTKVEIK
4 | 0.00188 s⁻¹ | 2/99 VH17/VL10 (antibody, V domains shown) VH: QQLQESGPGLVKPSETLSLTCTVSGFSLSSYAMSWVRQPPGKGLEWIGYIWSGGSTDYNPSLKSRVTISKDTSKNQVSLKLSSVTAADTAVYYCARRYGTSYPDYGDANGFDPWGPGTLVTVSS VL: DIQMTQSPSSLSASVGDRVTITCRASQSISSYLSWYQQKPGKAPKLLIYRASTLASGVPSRFSGSRSGTDFTLTISSLQPEDFATYYCQQSYSSSNVDNTFGGGTKVEIK
5 | 0.00746 s⁻¹ | 2/99 VH18/VL10 (antibody, V domains shown) VH: QVQLQESGPGLVKPSQTLSLTCTVSGFSLSSYAMSWIRQHPGKGLEWIGYIWSGGSTDYAPSLKSRVTISVDTSKNQFSLKLSSVTAADTAVYYCARRYGTSYPDYGDANGFDPWGQGTLVTVSS VL: DIQMTQSPSSLSASVGDRVTITCRASQSISSYLSWYQQKPGKAPKLLIYRASTLASGVPSRFSGSRSGTDFTLTISSLQPEDFATYYCQQSYSSSNVDNTFGGGTKVEIK
6 | 0.001 s⁻¹ | 2/99 VH19/VL10 (antibody, V domains shown) VH: QSMQESGPGLVKPSQTLSLTCTVSGFSLSSYAMSWIRQHPGKGLEWIGYIWSGGSTDYAPSLKSRVTISVDTSKNQFSLKLSSVTAADTAVYYCARRYGTSYPDYGDANGFDPWGQGTLVTVSS VL: DIQMTQSPSSLSASVGDRVTITCRASQSISSYLSWYQQKPGKAPKLLIYRASTLASGVPSRFSGSRSGTDFTLTISSLQPEDFATYYCQQSYSSSNVDNTFGGGTKVEIK
7 | 0.00705 s⁻¹ | 2/99 VH20/VL10 (antibody, V domains shown) VH: QSMQESGPGLVKPSQTLSLTCTVSGFSLSSYAMSWIRQHPGKGLEWIGYIWSGGSTDYAPSLKSRVTISVDTSKNQVSLKLSSVTAADTAVYYCARRYGTSYPDYGDANGFDPWGQGTLVTVSS VL: DIQMTQSPSSLSASVGDRVTITCRASQSISSYLSWYQQKPGKAPKLLIYRASTLASGVPSRFSGSRSGTDFTLTISSLQPEDFATYYCQQSYSSSNVDNTFGGGTKVEIK
8 | 0.00211 s⁻¹ | 2/99 VH21/VL10 (antibody, V domains shown) VH: QSMQESGPGLVKPSQTLSLTCTVSGFSLSSYAMSWIRQHPGKGLEWIGYIWSGGSTDYASWAKSRVTISVDTSKNQVSLKLSSVTAADTAVYYCARRYGTSYPDYGDANGFDPWGQGTLVTVSS VL: DIQMTQSPSSLSASVGDRVTITCRASQSISSYLSWYQQKPGKAPKLLIYRASTLASGVPSRFSGSRSGTDFTLTISSLQPEDFATYYCQQSYSSSNVDNTFGGGTKVEIK
9 | 0.00209 s⁻¹ | 2/99 VH22/VL10 (antibody, V domains shown) VH: QSMQESGPGLVKPSQTLSLTCTVSGFSLSSYAMSWVRQHPGKGLEWIGYIWSGGSTDYASWAKSRVTISVDTSKNQVSLKLSSVTAADTAVYYCARRYGTSYPDYGDANGFDPWGQGTLVTVSS VL: DIQMTQSPSSLSASVGDRVTITCRASQSISSYLSWYQQKPGKAPKLLIYRASTLASGVPSRFSGSRSGTDFTLTISSLQPEDFATYYCQQSYSSSNVDNTFGGGTKVEIK
10 | 0.0012 s⁻¹ | 2/99 VH23-DANG/VL10 (antibody, V domains shown) VH: QSMQESGPGLVKPSQTLSLTCTVSGFSLSSYAMSWIRQHPGKGLEWIGYIWSGGSTDYASWAKSRVTISKTSTTVSLKLSSVTAADTAVYYCARRYGTSYPDYGDANGFDPWGQGTLVTVSS VL: DIQMTQSPSSLSASVGDRVTITCRASQSISSYLSWYQQKPGKAPKLLIYRASTLASGVPSRFSGSRSGTDFTLTISSLQPEDFATYYCQQSYSSSNVDNTFGGGTKVEIK

The next lines start with the binder.

Row | Binder | koff
11 | 2/99 VH2/VL10 (antibody, V domains shown) VH: EVQLVETGGGLIQPGGSLRLSCAASGFSLSSYAMSWVRQAPGKGLEWVGYIWSGGSTDYADSVKGRFTISRDNSKNTLYLQMNSLRAEDTAVYYCARRYGTSYPDYGDANGFDPWGQGTLVTVSS VL: DIQMTQSPSSLSASVGDRVTITCRASQSISSYLSWYQQKPGKAPKLLIYRASTLASGVPSRFSGSRSGTDFTLTISSLQPEDFATYYCQQSYSSSNVDNTFGGGTKVEIK | 0.00649 s⁻¹
12 | 2/99 VH5/VL10 (antibody, V domains shown) VH: QSMEETGGGLIQPGGSLRLSCAASGFSLSSYAMSWVRQAPGKGLEWVGYIWSGGSTDYADSVKGRFTISRDNSKNTLYLQMNSLRAEDTAVYYCARRYGTSYPDYGDANGFDPWGPGTLVTVSS VL: DIQMTQSPSSLSASVGDRVTITCRASQSISSYLSWYQQKPGKAPKLLIYRASTLASGVPSRFSGSRSGTDFTLTISSLQPEDFATYYCQQSYSSSNVDNTFGGGTKVEIK | 0.00653 s⁻¹
13 | 2/99 VH6/VL10 (antibody, V domains shown) VH: QQLVETGGGLIQPGGSLRLSCAASGFSLSSYAMSWVRQAPGKGLEWIGYIWSGGSTDYADSVKGRFTISRDNSKNTLYLQMNSLRAEDTAVYYCARRYGTSYPDYGDANGFDPWGQGTLVTVSS VL: DIQMTQSPSSLSASVGDRVTITCRASQSISSYLSWYQQKPGKAPKLLIYRASTLASGVPSRFSGSRSGTDFTLTISSLQPEDFATYYCQQSYSSSNVDNTFGGGTKVEIK | 0.00455 s⁻¹
14 | 2/99 VH7/VL10 (antibody, V domains shown) VH: QQLVETGGGLIQPGGSLRLSCAASGFSLSSYAMSWVRQAPGKGLEWIGYIWSGGSTDYASWAKGRFTISRDNSKNTLYLQMNSLRAEDTAVYYCARRYGTSYPDYGDANGFDPWGQGTLVTVSS VL: DIQMTQSPSSLSASVGDRVTITCRASQSISSYLSWYQQKPGKAPKLLIYRASTLASGVPSRFSGSRSGTDFTLTISSLQPEDFATYYCQQSYSSSNVDNTFGGGTKVEIK | 0.00264 s⁻¹
15 | 2/99 VH8/VL10 (antibody, V domains shown) VH: QQLVETGGGLIQPGGSLRLSCAASGFSLSSYAMSWVRQAPGKGLEWIGYIWSGGSTDYASWAKGRFTISKTSTTLYLQMNSLRAEDTAVYYCARRYGTSYPDYGDANGFDPWGQGTLVTVSS VL: DIQMTQSPSSLSASVGDRVTITCRASQSISSYLSWYQQKPGKAPKLLIYRASTLASGVPSRFSGSRSGTDFTLTISSLQPEDFATYYCQQSYSSSNVDNTFGGGTKVEIK | 0.00173 s⁻¹
16 | 2/99 VH9/VL10 (antibody, V domains shown) VH: QQLLESGGGLVQPGGSLRLSCAASGFTFSSYAMSWVRQAPGKGLEWVGYIWSGGSTDYADSVKGRFTISRDNSKNTLYLQMNSLRAEDTAVYYCAKRYGTSYPDYGDANGFDPWGQGTLVTVSS VL: DIQMTQSPSSLSASVGDRVTITCRASQSISSYLSWYQQKPGKAPKLLIYRASTLASGVPSRFSGSRSGTDFTLTISSLQPEDFATYYCQQSYSSSNVDNTFGGGTKVEIK | 0.00719 s⁻¹
17 | 2/99 VH11/VL10 (antibody, V domains shown) VH: QQLLESGGGLVQPGGSLRLSCAASGFSLSSYAMSWVRQAPGKGLEWVGYIWSGGSTDYADSVKGRFTISRDNSKNTLYLQMNSLRAEDTAVYYCARRYGTSYPDYGDANGFDPWGQGTLVTVSS VL: DIQMTQSPSSLSASVGDRVTITCRASQSISSYLSWYQQKPGKAPKLLIYRASTLASGVPSRFSGSRSGTDFTLTISSLQPEDFATYYCQQSYSSSNVDNTFGGGTKVEIK | 0.00716 s⁻¹
18 | 2/99 VH12/VL10 (antibody, V domains shown) VH: QVQLQESGPGLVKPSETLSLTCTVSGFSLSSYAMSWIRQPPGKGLEWIGYIWSGGSTDYNPSLKSRVTISVDTSKNQFSLKLSSVTAADTAVYYCARRYGTSYPDYGDANGFDPWGQGTLVTVSS VL: DIQMTQSPSSLSASVGDRVTITCRASQSISSYLSWYQQKPGKAPKLLIYRASTLASGVPSRFSGSRSGTDFTLTISSLQPEDFATYYCQQSYSSSNVDNTFGGGTKVEIK | 0.00779 s⁻¹
19 | 2/99 VH1/VL12 (antibody, V domains shown) VH: VQLVETGGGLIQPGGSLRLSCAASGFSLSSYAMSWVRQAPGKGLEWVGYIWSGGSTDYADSVKGRFTISRDNSKNTLYLQMNSLRAEDTAVYYCARRYGTSYPDYGDANGFDPWGQGTLVTVSS VL: DIQMTQSPSSLSASVGDRVTITCRASQSISSYLAWYQQKPGKAPKLLIYRASTLASGVPSRFSGSRSGTDFTLTISSLQPEDFATYYCQQHYSSSNVDNTFGGGTKVEIK | 0.00705 s⁻¹
20 | 2/99 VH2/VL12 (antibody, V domains shown) VH: EVQLVETGGGLIQPGGSLRLSCAASGFSLSSYAMSWVRQAPGKGLEWVGYIWSGGSTDYADSVKGRFTISRDNSKNTLYLQMNSLRAEDTAVYYCARRYGTSYPDYGDANGFDPWGQGTLVTVSS VL: DIQMTQSPSSLSASVGDRVTITCRASQSISSYLAWYQQKPGKAPKLLIYRASTLASGVPSRFSGSRSGTDFTLTISSLQPEDFATYYCQQHYSSSNVDNTFGGGTKVEIK | 0.00814 s⁻¹
21 | 2/99 VH5/VL12 (antibody, V domains shown) VH: QSMEETGGGLIQPGGSLRLSCAASGFSLSSYAMSWVRQAPGKGLEWVGYIWSGGSTDYADSVKGRFTISRDNSKNTLYLQMNSLRAEDTAVYYCARRYGTSYPDYGDANGFDPWGPGTLVTVSS VL: DIQMTQSPSSLSASVGDRVTITCRASQSISSYLAWYQQKPGKAPKLLIYRASTLASGVPSRFSGSRSGTDFTLTISSLQPEDFATYYCQQHYSSSNVDNTFGGGTKVEIK | 0.001 s⁻¹
22 | 2/99 VH6/VL12 (antibody, V domains shown) VH: QQLVETGGGLIQPGGSLRLSCAASGFSLSSYAMSWVRQAPGKGLEWIGYIWSGGSTDYADSVKGRFTISRDNSKNTLYLQMNSLRAEDTAVYYCARRYGTSYPDYGDANGFDPWGQGTLVTVSS VL: DIQMTQSPSSLSASVGDRVTITCRASQSISSYLAWYQQKPGKAPKLLIYRASTLASGVPSRFSGSRSGTDFTLTISSLQPEDFATYYCQQHYSSSNVDNTFGGGTKVEIK | 0.00778 s⁻¹
